Test results as given in paper PMC12037675, “Design of self-emulsifying oral delivery systems for semaglutide: reverse micelles versus hydrophobic ion pairs” (Drug Delivery and Translational Research, 2024).

Experiments:
[1] = cited from earlier work
log D lipid phase/water = format: physicochemical
Method: Retention of drug within lipid phase after emulsification is crucial for the active ingredient to reach the absorption membrane in intact form. Thus, high log Dlipid phase/water values are substantial for lipophilic complexes of semaglutide. In brief, 200 µL of peptide loaded RM or HIP complexes corresponding to 2 mg of semaglutide in the lipid phases GML/C8 (1:4; m/m), […] were underlaid with 200 µL of demineralized water and incubated at 300 rpm on a thermomixer for 24 h. In the following samples were centrifuged at 12,045 RCF for 10 min and 100 µL aliquots from both phases were withdrawn and the amount of peptide was quantified by HPLC. The distribution coefficient was calculated according to Eq. 3:3 [drawing 5]
where [drawing 6] corresponds to peptide concentration in the lipophilic phase after incubation and [drawing 7] to peptide concentration in the water phase after incubation. Log Dlipid phase/water values for reference (poly)peptides were determined in the same manner.

[2] = Solubility of (poly)peptides in lipid phases via reverse micelles (dry addition) or HIP; format: physicochemical
Method: (Poly)peptide loaded RM were prepared utilizing 200 mM of surfactants dissolved within the oily phase (GML/C8 (1:4; m/m), GMCC/C8 (1:4; m/m) and GMCC/GML (1:4; m/m)) in order to guarantee formation of reverse micelles. Loaded reverse micelles were prepared by the addition of semaglutide to surfactant-oil solutions (200 mM ELA or 200 mM DOC) resulting in a final concentration of 50 mg/mL. The mixtures were vortexed and treated with ultrasound for 30 min before incubation at 1200 rpm at room temperature (RT). Formation of reverse micelles by dry addition method, describing the direct addition of the API in powdered form to lipophilic solvents without use of any additional solvents, was investigated for semaglutide and three further (poly)peptides for comparison. In that regard, semaglutide with a molecular weight of 4.1 kDa was compared to colistin representing the smallest investigated peptide (1.1 kDa). In addition, two larger polypeptides, lysozyme (LYS, 14.4 kDa) and bovine serum albumin (BSA, 66.4 kDa) were investigated. At predetermined time points the dissolved (poly)peptide in supernatant was quantified by HPLC after centrifugation at 12,045 RCF for 10 min.

Caco-2 monolayer = test: Caco-2 permeation study; format: in vitro ADME, human; conditions: Caco-2 on 24-well Transwell, 21 days, apical to basolateral, HBS pH 6.8, SEDDS 0.05% (v/v), 6 h; ELISA; means n = 4
Method: The ability of native semaglutide as well as semaglutide-RM loaded SEDDS and SEDDS containing HIP to permeate the intestinal epithelium was investigated using Caco-2 cells. Caco-2 cell line was seeded on a 24-well Transwell filters plate at a cell density of 1.25 × 10^5 cells/cm^2. Cells were cultivated for 21 days replacing the media every second day. On the day of the experiment, cells were washed twice using sterile HBS buffer pH 6.8. To start the experiment after the equilibration period, the buffer was removed and replaced with 100 µL of either native semaglutide solution in sterile HBS buffer pH 6.8 or semaglutide-RMs loaded SEDDS diluted to a concentration of 0.05% (v/v) with sterile HBS buffer pH 6.8. Sterile HBS buffer (500 µL) was added to basolateral side. At predetermined time points, 100 µL were withdrawn from basolateral chambers and replaced with prewarmed HBS. The amount of semaglutide in the basolateral chamber was measured through ELISA (KRIBIOLISA™ Semaglutide ELISA, Krishgen BioSystems, US). Transepithelial electric resistance (TEER) in a range of 1200–3300 ohm/cm^2 were measured ensuring integrity of cell monolayers (Evom2, World Precision Instrument Inc., USA).

[3] = Hydrophobic ion pairing with ethyl lauroyl arginate: precipitation efficiency; format: physicochemical; conditions: 1:1 charge ratio (peptide:surfactant), peptide in 0.001 M NaOH, 2 h, 400 rpm, ambient temperature; mean ± SD
Method: Hydrophobic ion pairs were formed in order to increase lipophilicity of semaglutide according to previous studies. The peptide was dissolved in 0.001 M NaOH in a concentration of 10 mg/ml to obtain a negative net charge. Ethyl lauroyl arginate, as a cationic counter ion was dissolved in demineralized water. Equal amounts (500 µL: 500 µL) of peptide and surfactant solution were combined corresponding to a charge ratio of 1:1 (peptide:surfactant). Samples were agitated at 400 rpm for 2 h on a thermomixer (Eppendorf, Austria) at ambient temperature. Precipitates were separated from the solution by centrifugation at 12,045 RCF for 10 min (Minispin, Eppendorf, Austria). Precipitation efficiency was determined according to the following equation:1 [drawing 1]

colistin [1.1 kDa reference peptide]
Isoelectric point (IEP) [1]: 5.0 | Change in lipophilicity (log D lipid phase/water) in RM (log D lipid phase/water; RM formed with docusate): enhanced lipophilicity | Change in lipophilicity (log D lipid phase/water) in RM (log D lipid phase/water; RM formed with ethyl lauroyl arginate): almost no increase in lipophilicity

CC[C@H](C)[C@H](NC(=O)[C@H](Cc1ccccc1)NC(=O)[C@H](CCC(=O)O)NC(=O)[C@H](CCCCNC(=O)COCCOCCNC(=O)COCCOCCNC(=O)CC[C@H](NC(=O)CCCCCCCCCCCCCCCCC(=O)O)C(=O)O)NC(=O)[C@H](C)NC(=O)[C@H](C)NC(=O)[C@H](CCC(N)=O)NC(=O)CNC(=O)[C@H](CCC(=O)O)NC(=O)[C@H](CC(C)C)NC(=O)[C@H](Cc1ccc(O)cc1)NC(=O)[C@H](CO)NC(=O)[C@H](CO)NC(=O)[C@@H](NC(=O)[C@H](CC(=O)O)NC(=O)[C@H](CO)NC(=O)[C@@H](NC(=O)[C@H](Cc1ccccc1)NC(=O)[C@@H](NC(=O)CNC(=O)[C@H](CCC(=O)O)NC(=O)C(C)(C)NC(=O)[C@@H](N)Cc1cnc[nH]1)[C@@H](C)O)[C@@H](C)O)C(C)C)C(=O)N[C@@H](C)C(=O)N[C@@H](Cc1c[nH]c2ccccc12)C(=O)N[C@@H](CC(C)C)C(=O)N[C@H](C(=O)N[C@@H](CCCNC(=N)N)C(=O)NCC(=O)N[C@@H](CCCNC(=N)N)C(=O)NCC(=O)O)C(C)C [semaglutide]
Maximum solubility within reverse micelles ([2]; after 48 h to 72 h, dry addition, 200 mM ELA or DOC, 50 mg/mL added, RT, HPLC, means n ≥ 3): ~100% | Solubility in RM in comparison to HIP ([2]; best performing lipid phase glycerol monocaprylocaprate:caprylic acid 1:4 (m/m)): at least 2 fold | Apparent permeability coefficient (Papp) (Caco-2 monolayer): significantly lower Papp value

bovine serum albumin [66.4 kDa reference polypeptide]
Precipitation efficiency of HIP with ethyl lauroyl arginate [3]: 39.1 ± 2.2% | Solubility within reverse micelles ([2]; even after prolonged incubation time, dry addition, 200 mM surfactant, RT, HPLC): below 1 mg/mL | Isoelectric point (IEP) [1]: 5.0

lysozyme [14.4 kDa reference polypeptide]
Precipitation efficiency of HIP with ethyl lauroyl arginate [3]: 0.0 ± 1.7% | Solubility in RM, times lower compared to semaglutide ([2]; reverse micelles, dry addition, pronounced increase only after 72 h): about 10 times | Isoelectric point (IEP) [1]: 11.0 | Improvement in lipophilicity in RM compared to the native peptide (log D lipid phase/water; log D lipid phase/water, RM): up to 600 fold
